The experiment has as its target Abi2-SH3 domain (AbI2B) (SH3 domain array) (Homo sapiens (Human), UniProt Q9NYB9-1). Nature of the experiment: SH3 domain array (far-western overlay).

Abi2-SH3 domain (AbI2B) (SH3 domain array), sequence (Q9NYB9 451-510): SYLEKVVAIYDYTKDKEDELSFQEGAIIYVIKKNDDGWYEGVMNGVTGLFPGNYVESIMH

In the case of SLLFRRTKATAPGPEGGGTLHPNPTDKTSSIQSRPLPSPPKFT (protein) [His-tagged-p130Cas-P2 domain], the binding result is “binds”.

The record behind these values is publication PMC3629710 (2013).
